From the domain aggregation screens of Martell et al. (2025)

Experiment: soluble fraction after stress (log2 fold change); higher = more stays soluble; pooled small domains, quantitative proteomics
Settings: stress: 50 degC
Outline: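 The stress applied to every library was 50°C. These custom libraries of small protein domains were pooled and measured at high throughput with quantitative proteomics as the read-out. Aggregation propensity is expressed as the base-two logarithm of the fold change in how much of each protein remains soluble. The higher the value, the more of that protein stays in solution.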

Sequence: HMSSHNIALDQDVVVTQLKGKVYLVAADGSQKQLAEGDILPKDAVLITPEGASFKGGNQTFTLS
- soluble fraction (log2): 0.17

Sequence: HMSSIFTRIIAGEIPSYKVAEDENYYAFLDINPLTKGHTLVVPKMEVDYIFDLDDKTLAGMMLFAKKG
- soluble fraction (log2): -0.0969

Sequence: HMSSKIKYSEFITMLDKGEVESVVLKSDTLTITLKHGTGVAAQTKTTTLMEDLSELTKRLEKAGIKDFDK
- soluble fraction (log2): 0.0396

Sequence: HMSSLDTLTARETQILAEMAQGKNNAAIAAAVSVSERAVEKHTNSIFAKLGLSEEKDVNRRVMAVLLFLGR
- soluble fraction (log2): -3.28

Sequence: HMSSLEQVYPNPVSSILKLNSFIKNYKILNATGHEVLKGSGNTINVGKLPSGSYFLITSENYSIKFIK
- soluble fraction (log2): -1.24

Sequence: HMSSLSGVRRTLLDSLGMPPDASDEELADRREELRGSLDTAPQARRKWIEQQLARIDAITALDASG
- soluble fraction (log2): -0.035

Sequence: HMSSPEAAEVQRLLKDGQHVQALKIIDESLARNPKDPQMRFRRGVALSMLDRKNEALAVFQKLVED
- soluble fraction (log2): -0.043

Sequence: HMSSPRAIYSAIQKAVGEDMILYREDVQIILDKLDADLLVDDILEKMELDGTLVRQRDGTWLLL
- soluble fraction (log2): -0.658

Sequence: HMSSQVFLGQKNSIAKYDLNENKPIWTKEIKGTPLILSTWKDMLLIQIQTWVSYTHMLVKQENGQTVWE
- soluble fraction (log2): 0.318

Sequence: HMSSRLEIEITSKIDDLSHTWRAVGAKQPKGNIKSSLLPSGVKVGETFRVEADFLLDGIEIVSVLPP
- soluble fraction (log2): -1.44

Sequence: HMSSSLDQLTVREREILAQVSRGLSNKAIARELGISHDTVKLHVRHILSKLGFSSRVEAAVFAIEHRIG
- soluble fraction (log2): -1.72

Sequence: HMSSSMDAIAEIIRSIPRGDHLTAPEVYELAKQRGLKLSLSTVYRTLNKLKVVGDVITVSGDRGLRYESV
- soluble fraction (log2): -0.181

Sequence: HMSSTPEPPQAVLDLVNLREQARAGKDWTQSDAFRQQIAALGWTVKDTKDGPVVSLSPTTTE
- soluble fraction (log2): 0.0968

Sequence: HMSSTSTMTVAEATIGRKVKHDKFGEGTIITVADVNGDKKLTIAFNQQGVKMLMLSMAKLEL
- soluble fraction (log2): -1.03

Sequence: HMSSVEVWINGKSSGLTSDNRAQILQQLPAESIERIEVIDNPSAKFSAEGSAGIINIVLKKD
- soluble fraction (log2): 0.157

Sequence: HMSSVRDNGDLELVPGDRIRHDDYGEGRVTAVTGVGSKRIAHAVFDSVGERKLLIKLSPIEKI
- soluble fraction (log2): -0.0293

Sequence: HMSSWMTKDGKIKPISKWAGVPMTSQQQADYAAGKVVELTNIPDKQGQLNTVYLKFNPEKQRPTTSLNDPR
- soluble fraction (log2): 0.134

Sequence: HMSSYETVTLNGQRYFKYKVKSGEGLYAISRMFSTPIAEIIRHNPSSNAGLKNGQELLIPVN
- soluble fraction (log2): 0.00287

Sequence: HMSSYMQMQLERLESLLQKNDLTDSDKYDIRQLVEDLDKVPESVSPNLVGAYMTIKNRYASVLKTVL
- soluble fraction (log2): 0.501

Sequence: HMSTANISIEQAKEIALNHANLTSNQVIFSRTELDYDNGIQKYEVEFYYNNREYSYEINANTGDILGYEQ
- soluble fraction (log2): -0.148

Sequence: HMSTANIVVPDVKGKTFEEAKKAIEAEGLTAKAEGDESGVVQKTSPSYGVSVESGSEVTLTLVKSDD
- soluble fraction (log2): -0.0409

Sequence: HMSTDNINYKNILIASLLIHAAKIDENYTENEKNIIKKALIELDEIDSKKADEIMILAEKKE
- soluble fraction (log2): -0.221

Sequence: HMSTGYEMVREVANQGSFSKAANSLGVSGPAVSKQVKSLEERLGLVLFHRTTRAVSLTQAGRQLVDVLN
- soluble fraction (log2): 0.0396

Sequence: HMSTIKEKIIQYLDFKGISKYDFYQKTGVSNGVLSQKSGMSEDNIMRFLSYYDDINTDWLFYGKGEMIKT
- soluble fraction (log2): -1.13

Sequence: HMSTKLLEVNIFDDSKWVNKTIMDSDIPEDILIVMIKRGDEVIVPKGSTIINKGDILVLSANNFDNLLN
- soluble fraction (log2): -1.63

Sequence: HMSTMTEQEAFGLWERINDFIARTGNEPNRNSNDAHEVRMAEALNFIRIKVAEQRNSQSNSEAQNN
- soluble fraction (log2): -0.0168

Sequence: HMSTNDIFISGDKLVLKNTTGQMDVFDMAGRKVLSSTNNVSEMNVSSLPKGVYVVSASIGGSKMKAKVYK
- soluble fraction (log2): 0.527

Sequence: HMSTQGRRIEILRHLTQTKKKADVNFVELGRTFGTSDTTIRKDLDWLIKNEYWENHGEWKPTQAGLNMI
- soluble fraction (log2): 0.0347

Sequence: HMSTRKAFVNGDGVRLRSGPGTNHSIRASLTKGQTVFVTGTKDGWASVSVQGGASGWVSADLLKYE
- soluble fraction (log2): 0.232

Sequence: HMSTRYVRTPAGQAEIQARVFKLSRPVRNLLLVINDSRSIDDWLVQVHGITADDVAMLRAEGLIAEVS
- soluble fraction (log2): -2.4

Sequence: HMSTSEQVYTTDKVNVRREADTSSEKLGSLEKGTAISRTGTEGEWSVVNYGGVTGYIKTEFLTTEQPQ
- soluble fraction (log2): 0.132

Sequence: HMSTSFQVQVSVLDLRIRKEPTVKGQEVGKISKGIHTITETRSADGYTWGKLESGQGWIALEFTTKLD
- soluble fraction (log2): -0.194

Sequence: HMSTSLIEFTIDRNNSIANKMIMDANIPEDILVVMIKRNGDVFVPNGSTKILPGDILVLSGNKLKY
- soluble fraction (log2): -0.534

Sequence: HMSTTDGIERFLASGAVKGIGRTMAARIVEHFGSRTLTVMESEPERLTEVAGIGRKKAESIAASYAELS
- soluble fraction (log2): -0.156

Sequence: HMSTTYAPYLLGETEQEAIRMARNAGLDPQVVRQSDKSEAGTVILQSHDFGFAMKRGAVILITVSSGPLQ
- soluble fraction (log2): -1.44

Sequence: HMSTVTEVHYIAFKNGRIVDIKAALTGSAVTATSIKEQPKIENYNYTTSEVRDGILYHTYAPVA
- soluble fraction (log2): -1.32

Sequence: HMSVADNALSRQAIESRIALFIQNEDPNHPRSDADIQKELAQAGVVISRRAITKYRNHLHIPSASLRRR
- soluble fraction (log2): -1.03

Sequence: HMSVAPISYSQFESYLEQGKVASVAVGQDTIAGRFTAPVDGKSQFVTTIVNPQILDRIDKSGVEITGV
- soluble fraction (log2): 0.176

Sequence: HMSVAVKAPLQGTVMKVNVKPGDTVTKGAPVAVIEALKMENDVPAPQDGVVASVDVKSGDSVKTDQVLLTL
- soluble fraction (log2): 0.182

Sequence: HMSVDAMDEANERKMAKTFNMIVLGGLLKIRPIVSIESVIKALRKTLPERHHHLIPMNEEAIHIGMDII
- soluble fraction (log2): 0.0597

Sequence: HMSVDDEQLLKIIDDIFQQNPQAVTDAKTDSNAIHFLIGQVMKETKGHADHAISKEIIEKKLS
- soluble fraction (log2): 0.00481

Sequence: HMSVDEVEALYLKIAEDRLEGKLPDKVSESDLMRRYGLTKAQLGAILQRIVHEGWIERTPGHGWRFLPIL
- soluble fraction (log2): -0.259

Sequence: HMSVFMIIVLKQHAPQEFVDMLMSSIKAKGVQIDVSKGARKTILGLVGNTSVIDREQIAGYEYVDKVIRV
- soluble fraction (log2): -0.85

Sequence: HMSVFTDIYHQADHETKLMLIHEIKIVGDEKEFRLLKSIIDSTSNDLSKEANDALNAIKIRLALSK
- soluble fraction (log2): -2.49

Sequence: HMSVFTPLTRSELETFLAPYELGRLLDFQGIAAGSENTNYFISLEKGEYVLTLVERGPVAEMPFFIELLD
- soluble fraction (log2): -0.982

Sequence: HMSVGDLLENLIRETRAQFSAPPESLGVAEKRRFVALLSQKGGFLLKGAVSRAASVLGVSEQTVYRYLKDS
- soluble fraction (log2): -0.218

Sequence: HMSVGDLPPEAREIWKLLDGRELSLDLLAEETGRETGALLSTLMMLEMKLLVEHGSDMVYRRIPRR
- soluble fraction (log2): -1.78

Sequence: HMSVHSAELKKLKAHLLGIIGRELETQPSTENREEMVRQILHQSYESLRLNLPMQLKEELFNEILAEVL
- soluble fraction (log2): 0.353

Sequence: HMSVLEHVSGNVRRLRLQAGLSQEALARAASVSRRMLVGIESGDVNVSLSTLDRIAAALGVLFPDLVQAP
- soluble fraction (log2): -1.52

Sequence: HMSVLPAREQVAAILRQAILLRKFKEGQDLTLKDAAELVGSSITPVREAFQILENEGLIELRPNKGAVVL
- soluble fraction (log2): -0.284

Sequence: HMSVPEDLYFRELEVEGNKVRISGIASTNNRVSALMRNFDQSEWFRDPSLIKVESKSPGVNEFEIVMTRI
- soluble fraction (log2): 0.0509

Sequence: HMSVPNVVGRDQVEASSLLESAGFKVSVKQSYSDSVEQGKVISQSPSGSTTVSPGSTVTITVSQ
- soluble fraction (log2): 0.122

Sequence: HMSVPRPSAVEVTSLVTGVRDLLPHLGEGYVERVLVEFGFKVDETINALLEGNLPKHLQDLDPSLTKEI
- soluble fraction (log2): -0.662

Sequence: HMSVPVDEVLAALTQKLTDLRTQAMAAKDFSAVDALKAALTEAGVEVRMSKTGVELIAGPRVDAKKLGTL
- soluble fraction (log2): -0.03

Sequence: HMSVRPMVEILRVVGSPSPVWVTWARNRAAWLYETGIRPQQRLRMADGTEVLIRLVGEFAHILVVGG
- soluble fraction (log2): -0.31
